Results from patent US20180044434A1 (PUBLIC UNIVERSITY CORPORATION YOKOHAMA CITY UNIVERSITY, published 2018).
Changes are numbered by the printed parent chain.

B1: A11 (antibody, V domains shown)
VH: AVTLDESGGGLQTPGGALSLVCKASGFDFSSYGMGWMRQAPGKGLEYVAAIRNDGSWTGYGAAVKGHATISRDNGQSTVRLQLNNLRAEDTGTYYCAKTTGSRGGSIDAWGHGTEVIVS
VL: ASTQPSSVSANLGGTVEITCSGGGRYYYGWYQQKSPGSAPVTVIYANDKRPSDIPSRFSGSKSGSTGTLTITGVQAEDEAVYFCGSAETSSYVFGAGTTLTVL
notes: Chicken variable regions in a mouse chimeric antibody (IgG1); also called anti-PAD4 antibody A11
B2: E9 (antibody, V domains shown)
VH: B1 VH with A17T, A24G, D28T, A62S, H67R, G92A, T100S, R103S, I107V
VL: B1 VL
notes: Chicken variable regions in a mouse chimeric antibody (IgG1); also called anti-PAD4 antibody E9
B3: G9 (antibody, V domains shown)
VH: B1 VH with D28T, S31T, G33A, H67R, S71L, N84S, T99Y, R103S, D108G
VL: B1 VL with S2V, S6A
notes: Chicken variable regions in a mouse chimeric antibody (IgG1); also called anti-PAD4 antibody G9

These binders were tested against T1, full-length recombinant human PAD4 (human, UniProt Q9UM07 1-663) (assay: ELISA, coated human PAD4; antibody 6.104E-05 ug/mL).
T1 construct: Full-length recombinant; also called peptidylarginine deiminase 4
T1 sequence (Q9UM07 whole entry): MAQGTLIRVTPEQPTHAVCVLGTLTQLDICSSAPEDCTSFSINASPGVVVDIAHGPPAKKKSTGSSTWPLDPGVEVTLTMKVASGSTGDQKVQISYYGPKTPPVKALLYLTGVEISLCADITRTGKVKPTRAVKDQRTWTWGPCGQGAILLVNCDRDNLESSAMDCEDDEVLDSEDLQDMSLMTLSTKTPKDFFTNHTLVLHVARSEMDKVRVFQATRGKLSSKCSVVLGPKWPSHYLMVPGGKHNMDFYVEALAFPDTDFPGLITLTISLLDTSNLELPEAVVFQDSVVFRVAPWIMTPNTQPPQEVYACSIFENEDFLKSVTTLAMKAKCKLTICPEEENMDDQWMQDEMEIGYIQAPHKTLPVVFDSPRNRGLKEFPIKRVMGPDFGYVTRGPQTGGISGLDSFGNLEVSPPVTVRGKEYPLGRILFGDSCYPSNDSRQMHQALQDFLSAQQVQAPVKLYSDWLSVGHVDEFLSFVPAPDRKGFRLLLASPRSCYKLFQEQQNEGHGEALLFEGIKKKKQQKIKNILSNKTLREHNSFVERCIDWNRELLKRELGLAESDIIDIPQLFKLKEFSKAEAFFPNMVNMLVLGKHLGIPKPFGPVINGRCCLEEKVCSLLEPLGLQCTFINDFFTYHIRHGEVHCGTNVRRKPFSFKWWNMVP

Compared with B1, B2 is higher in “OD 490/630 nm” value: 0.063 for the first, 0.07 for the second.

B3 was tested, and the “OD 490/630 nm” value was 0.082.

What follows are binders tested against T2, full-length recombinant mouse PAD4 (mouse, UniProt Q9Z183 1-666) (assay: ELISA, coated mouse PAD4; antibody 0.25 ug/mL).
T2 construct: mature; Full-length recombinant
T2 sequence (Q9Z183 whole entry): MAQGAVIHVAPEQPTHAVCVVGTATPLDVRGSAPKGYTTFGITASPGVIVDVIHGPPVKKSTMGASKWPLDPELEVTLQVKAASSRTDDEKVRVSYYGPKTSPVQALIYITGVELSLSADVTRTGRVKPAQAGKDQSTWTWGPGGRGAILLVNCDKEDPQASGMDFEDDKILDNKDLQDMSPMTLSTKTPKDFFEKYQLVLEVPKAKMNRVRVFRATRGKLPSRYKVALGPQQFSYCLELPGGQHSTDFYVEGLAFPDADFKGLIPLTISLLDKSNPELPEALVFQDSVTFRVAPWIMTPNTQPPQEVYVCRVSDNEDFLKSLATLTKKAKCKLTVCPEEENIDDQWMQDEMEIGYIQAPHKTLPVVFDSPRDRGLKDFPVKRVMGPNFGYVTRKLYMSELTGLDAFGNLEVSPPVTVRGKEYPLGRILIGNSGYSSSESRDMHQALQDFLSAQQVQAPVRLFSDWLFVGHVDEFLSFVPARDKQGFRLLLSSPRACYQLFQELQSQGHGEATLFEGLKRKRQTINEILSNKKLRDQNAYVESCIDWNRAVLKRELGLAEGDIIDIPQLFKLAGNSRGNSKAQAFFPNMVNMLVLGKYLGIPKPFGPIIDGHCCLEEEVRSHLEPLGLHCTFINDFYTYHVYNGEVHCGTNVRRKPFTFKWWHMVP

First: B1
Second: B2
The “OD 490/630 nm” value of the first is higher: 2.25 for the first, 2.23 for the second.

B3 was tested, and the “OD 490/630 nm” value was 2.25.

Each binder was assayed against T2, full-length recombinant mouse PAD4 (assay: ELISA, coated mouse PAD4; antibody 1 ug/mL).

Compared with B1, B2 is lower in “OD 490/630 nm” value: 2.24 for the first, 2.23 for the second.

B3 was tested, and the “OD 490/630 nm” value was 2.3.

Target: T3, Ala mutant of TA0096, SEQ ID NO: 37
T3 peptide: EENMDDQWMQAEMEIGY
Test: ELISA, coated peptide

Going from B1 to B2, the “OD 490/630 nm” value falls from 1.8 to 1.2.

With B3 the “OD 490/630 nm” value was 1.88.

Target: T4, Ala mutant of TA0096, SEQ ID NO: 29
T4 peptide: EEAMDDQWMQDEMEIGY
Test: ELISA, coated peptide

First: B1
Second: B2
The “OD 490/630 nm” value of the first is higher: 2.05 for the first, 1.92 for the second.

For B3, the “OD 490/630 nm” value was 1.94.

Target: T5, Ala mutant of TA0096, SEQ ID NO: 42
T5 peptide: EENMDDQWMQDEMEIAY
Test: ELISA, coated peptide

Going from B1 to B2, the “OD 490/630 nm” value falls from 1.88 to 1.83.

With B3 the “OD 490/630 nm” value was 1.85.

Target: T6, Ala mutant of TA0096, SEQ ID NO: 36
T6 peptide: EENMDDQWMADEMEIGY
Test: ELISA, coated peptide

First: B1
Second: B2
The “OD 490/630 nm” value of the first is higher: 1.91 for the first, 1.9 for the second.

For B3, the “OD 490/630 nm” value was 1.87.

Target: T7, Ala mutant of TA0096, SEQ ID NO: 27
T7 peptide: AENMDDQWMQDEMEIGY
Test: ELISA, coated peptide

Going from B1 to B2, the “OD 490/630 nm” value falls from 1.95 to 1.89.

In the case of B3, the “OD 490/630 nm” value is reported as 1.93.

Target: T8, TA0096 (peptide antigen corresponding to positions 340 to 356 of PAD4)
T8 peptide: EENMDDQWMQDEMEIGY
Test: ELISA, coated peptide

Going from B1 to B2, the “OD 490/630 nm” value falls from 1.81 to 1.79.

For B3, the “OD 490/630 nm” value was 1.85.

Target: T9, Ala mutant of TA0096, SEQ ID NO: 38
T9 peptide: EENMDDQWMQDAMEIGY
Test: ELISA, coated peptide

First: B1
Second: B2
The “OD 490/630 nm” value of the first is lower: 1.89 for the first, 1.91 for the second.

In the case of B3, the “OD 490/630 nm” value is reported as 1.96.

Target: T10, Ala mutant of TA0096, SEQ ID NO: 33
T10 peptide: EENMDDAWMQDEMEIGY
Test: ELISA, coated peptide

Compared with B1, B2 is lower in “OD 490/630 nm” value: 2.09 for the first, 1.93 for the second.

B3 was tested, and the “OD 490/630 nm” value was 1.98.

Target: T11, Ala mutant of TA0096, SEQ ID NO: 43
T11 peptide: EENMDDQWMQDEMEIGA
Test: ELISA, coated peptide

Compared with B1, B2 is lower in “OD 490/630 nm” value: 1.92 for the first, 1.88 for the second.

In the case of B3, the “OD 490/630 nm” value is reported as 1.88.

Target: T12, Ala mutant having 3-amino acid substitution, SEQ ID NO: 48
T12 peptide: EENMDDQWMQDEAAAGY
Test: ELISA, coated peptide

Compared with B1, B2 is lower in “OD 490/630 nm” value: 1.87 for the first, 1.81 for the second.

With B3 the “OD 490/630 nm” value was 1.89.

Target: T13, Ala mutant having 3-amino acid substitution, SEQ ID NO: 49
T13 peptide: EENMDDQWMQDEMEIAA
Test: ELISA, coated peptide

First: B1
Second: B2
The “OD 490/630 nm” value of the first is higher: 1.89 for the first, 1.85 for the second.

In the case of B3, the “OD 490/630 nm” value is reported as 1.92.

Target: T14, Ala mutant of TA0096, SEQ ID NO: 39
T14 peptide: EENMDDQWMQDEAEIGY
Test: ELISA, coated peptide

Compared with B1, B2 is lower in “OD 490/630 nm” value: 1.89 for the first, 1.77 for the second.

For B3, the “OD 490/630 nm” value was 1.87.

Target: T15, Ala mutant of TA0096, SEQ ID NO: 34
T15 peptide: EENMDDQAMQDEMEIGY
Test: ELISA, coated peptide

First: B1
Second: B2
The “OD 490/630 nm” value of the first is lower: 0.021 for the first, 0.047 for the second.

B3 was tested, and the “OD 490/630 nm” value was 0.038.

Target: T16, Ala mutant of TA0096, SEQ ID NO: 30
T16 peptide: EENADDQWMQDEMEIGY
Test: ELISA, coated peptide

Compared with B1, B2 is lower in “OD 490/630 nm” value: 2.03 for the first, 1.91 for the second.

In the case of B3, the “OD 490/630 nm” value is reported as 2.03.

Target: T17, Ala mutant of TA0096, SEQ ID NO: 35
T17 peptide: EENMDDQWAQDEMEIGY
Test: ELISA, coated peptide

Compared with B1, B2 is lower in “OD 490/630 nm” value: 0.023 for the first, 0.017 for the second.

In the case of B3, the “OD 490/630 nm” value is reported as 0.253.

Target: T18, Ala mutant of TA0096, SEQ ID NO: 31
T18 peptide: EENMADQWMQDEMEIGY
Test: ELISA, coated peptide

First: B1
Second: B2
The “OD 490/630 nm” value of the first is higher: 1.67 for the first, 1.38 for the second.

In the case of B3, the “OD 490/630 nm” value is reported as 1.48.

What follows are binders tested against T1, full-length recombinant human PAD4 (assay: ELISA, coated human PAD4; antibody 0.0039063 ug/mL).

Compared with B1, B2 is higher in “OD 490/630 nm” value: 1.31 for the first, 1.36 for the second.

In the case of B3, the “OD 490/630 nm” value is reported as 1.36.

These binders were tested against T2, full-length recombinant mouse PAD4 (assay: ELISA, coated mouse PAD4; antibody 0.015625 ug/mL).

Going from B1 to B2, the “OD 490/630 nm” value falls from 2.02 to 1.86.

With B3 the “OD 490/630 nm” value was 2.21.

Each binder was assayed against T2, full-length recombinant mouse PAD4 (assay: ELISA, coated mouse PAD4; antibody 0.0002441 ug/mL).

Compared with B1, B2 is lower in “OD 490/630 nm” value: 0.152 for the first, 0.122 for the second.

With B3 the “OD 490/630 nm” value was 0.181.

What follows are binders tested against T1, full-length recombinant human PAD4 (assay: ELISA, coated human PAD4; antibody 0.25 ug/mL).

Going from B1 to B2, the “OD 490/630 nm” value falls from 2.11 to 2.08.

With B3 the “OD 490/630 nm” value was 2.08.

These binders were tested against T1, full-length recombinant human PAD4 (assay: SPR (Biacore T200), antibody captured, human PAD4 analyte).
Protocol: Biacore (GE Healthcare, Biacore T200) was carried out to evaluate the affinity of A11 etc., toward human PAD4. A Mouse Antibody Capture kit (GE Healthcare, BR-1008-38) was used for the affinity assay. Specifically, in accordance with the standard protocol provided by the manufacture, NHS/EDC was used and an amine coupling method, in which a free carboxyl group is fixed on a surface of a CM5 chip, was used to immobilize a rabbit anti-mouse polyclonal antibody on the surface of a CM5 chip. Next, A11 etc., were each captured by the rabbit anti-mouse polyclonal antibody. L207 was likewise captured. Then, human PAD4 at each concentration was subjected to Biacore T200 measurement to create a kinetic sensorgram.

B1 and B2 are within 1.5-fold of each other in Kd: 4.37 nM for the first, 5.52 nM for the second.

B3 gave a Kd of 3.16 nM.

B1 and B2 are within 1.5-fold of each other in koff: 0.000566 s⁻¹ for the first, 0.000837 s⁻¹ for the second.

With B3 the koff was 0.000284 s⁻¹.

B1 and B2 are within 1.5-fold of each other in kon: 129000 M⁻¹ s⁻¹ for the first, 152000 M⁻¹ s⁻¹ for the second.

Binder B3 has a kon of 90000 M⁻¹ s⁻¹.

These binders were tested against T2, full-length recombinant mouse PAD4 (assay: ELISA, coated mouse PAD4; antibody 6.104E-05 ug/mL).

Compared with B1, B2 is higher in “OD 490/630 nm” value: 0.045 for the first, 0.051 for the second.

In the case of B3, the “OD 490/630 nm” value is reported as 0.079.

What follows are binders tested against T1, full-length recombinant human PAD4 (assay: ELISA, coated human PAD4; antibody 0.015625 ug/mL).

B1 and B2 are the same in “OD 490/630 nm” value: 2.08 for the first, 2.08 for the second.

B3 was tested, and the “OD 490/630 nm” value was 2.07.

What follows are binders tested against T1, full-length recombinant human PAD4 (assay: ELISA, coated human PAD4; antibody 1 ug/mL).

Compared with B1, B2 is lower in “OD 490/630 nm” value: 2.15 for the first, 2.11 for the second.

With B3 the “OD 490/630 nm” value was 2.1.

These binders were tested against T1, full-length recombinant human PAD4 (assay: ELISA, coated human PAD4; antibody 0.0625 ug/mL).

Going from B1 to B2, the “OD 490/630 nm” value falls from 2.15 to 2.12.

In the case of B3, the “OD 490/630 nm” value is reported as 2.11.

What follows are binders tested against T2, full-length recombinant mouse PAD4 (assay: ELISA, coated mouse PAD4; antibody 0.0009766 ug/mL).

Compared with B1, B2 is higher in “OD 490/630 nm” value: 0.386 for the first, 0.416 for the second.

In the case of B3, the “OD 490/630 nm” value is reported as 0.542.

What follows are binders tested against T2, full-length recombinant mouse PAD4 (assay: ELISA, coated mouse PAD4; antibody 0.0625 ug/mL).

First: B1
Second: B2
The “OD 490/630 nm” value of the first is higher: 2.24 for the first, 2.19 for the second.

For B3, the “OD 490/630 nm” value was 2.24.
